{"source": "paper PMC9076864", "about": "“Cryo-EM structures of thylakoid-located voltage-dependent chloride channel VCCN1” (Nature Communications, 2022)", "target": "the molecule itself", "assay": "cryo-EM structure; single-particle cryo-EM of the channel reconstituted in MSP1E3D1/SoyPC nanodiscs; 50 mM Tris pH 8.0, 150 mM NaCl; C5 symmetry imposed", "data": [{"protein": "Malus domestica VCCN1, N-terminally truncated \"wild-type\" construct (natural protein) MPNPSPPSSSSPVQTLISILRIIPDWSDRTQERGMRQHRTLYDHEKWMHHRSSYRHLRHLLSSLSSRVILSLIPPVIAFTLVAVVIASYNTAVALDLLPGIFPLLRSSSLPYQLTAPALALLLVFRTEASYSRFEEGRKAWTEVIAGANDFARQIISSVETSGDAQLKKALLQYIVAFPVALKCHVIYGSDIARDLQNLLEVDDLLVVLNSKHRPGCIIQFISRSLQLLKLEESRRIMLQSKISCFHEGIGICEQLIGTPIPLSYTRLTSRFLVLWHLTLPIILWDDCHWIVVPATFISAASLFCIEQVGVLIEEPFPMLALDDLCNSVRNNVQEALASEKLIRARLAAKGRIQSEQQFQNGQPRPENLYFQ", "values": [{"measurement": "stoichiometry N", "result": 5}]}]}
